Measured values: patent publication US20190263922A1 (TIGA TX, published 2019)
Residue numbers refer to the chain shown, from its start. Names may count otherwise. One block for each binder: values may come before it.

What was measured:
[1] = biological target: T1, human CD20 (human, UniProt P11836 1-297); test: binding assay, parental against L11V version, data not shown
T1 construct: whole, on cells; Always presented on cells; also called MS4A1; CD20 WT
T1 sequence (looked up): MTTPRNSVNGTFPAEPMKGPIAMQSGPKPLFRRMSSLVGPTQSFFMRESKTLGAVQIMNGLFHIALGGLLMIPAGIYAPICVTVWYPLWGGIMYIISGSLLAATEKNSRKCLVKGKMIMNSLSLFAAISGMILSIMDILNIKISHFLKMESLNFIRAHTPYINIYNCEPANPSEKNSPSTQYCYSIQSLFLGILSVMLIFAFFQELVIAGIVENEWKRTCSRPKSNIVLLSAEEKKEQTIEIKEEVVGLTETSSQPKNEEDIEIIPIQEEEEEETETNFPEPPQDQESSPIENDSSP

[2] = biological target: T1, human CD20; test: FACS on Ramos cells, dilution series
[3] = biological target: T1, human CD20; test: LigandTracer Green, 10 nM FITC-labeled mAb on SKBR3-CD20 cells, OneToOne fit, non-competitive dissociation
Procedure: (§1) Kinetics analysis of interactions between the mAbs and CD20 was performed by using the LigandTracer green Technology (Ridgeview Instruments AB). 10⁶ SKBR3-CD20 cells were seeded on one side of a 10 cm culture dish (Greiner) as target cell area and association of 10 nM FITC-labeled CD20 mAb was measured. For non-competitive or competitive dissociation, labeled mAb solution was replaced by RPMI culture medium or 100 nM unlabeled mAb of the same clone, respectively. Analysis was performed using an OneToOne fitting model in TraceDrawer (Ridgeview Instruments AB).
(§2) A slow Ab off-rate might favor the formation of Ab-Clq complexes, the first component of the classical complement pathway. […] To characterize interaction kinetics and affinity of mAbs, we used the LigandTracer technology to record real-time binding and dissociation of Abs to cellular receptors.

[4] = biological target: T1, human CD20; test: LigandTracer Green, 10 nM FITC-labeled mAb on SKBR3-CD20 cells, OneToOne fit, competitive dissociation (100 nM unlabeled mAb of the same clone)
Procedure: as §1, §2

[5] = biological target: T1, human CD20; test: FACS on Daudi cells, dilution series
Procedure: FIG. 8. […] Binding was determined by FACS after incubation of Daudi cells with a dilution series of mAb.
10⁵ Daudi cells were plated out in a 96-well plate and incubated with IgG1-CD20 mAbs (in PBS) for 45 min on ice. After washing, bound CD20 mAbs were detected with goat-F(ab′)₂-anti-hIgG-RPE (Southern Biotech) and subsequently measured on a FACS Canto II (BD).

[6] = biological target: T1, human CD20; test: FACS on Daudi cells
[7] = biological target: T2, CD20 single mutant A170P (human, UniProt P11836 1-297); test: FACS, HEK293F cells transfected with CD20 A170P
T2 construct: whole, on cells
T2 sequence (looked up): T1 sequence (looked up) with A170P
Procedure: (§3) One day post-transfection, cells were harvested, washed in FACS buffer and stained for 30 min with 5 μg/mL CD20 mAbs on ice. mAb binding was detected with a goat-anti-hIgG-APC or goat-anti-mIgG-APC Ab (Jackson). Cells were measured on a FACS Canto II (BD).

[8] = biological target: T3, CD20 mutant T159K/N163D/N166D (human, UniProt P11836 1-297); test: FACS, HEK293F cells transfected with CD20 T159K/N163D/N166D, 5 ug/mL mAb
T3 construct: whole, on cells; also called KDD
T3 sequence (looked up): T1 sequence (looked up) with T159K, N163D, N166D
Procedure: as §3
Therefore, we first performed a rough epitope mapping experiment with two CD20 mutants, with amino acids mutated in either the small (T159K/N163D/N166D) or larger (A170S/P172S) loop of CD20 (FIG. 4B).

B1: IgG1-CD20-1 with the L11V mutation (antibody)
heavy: not shown
light: QIVLSQSPAVLFASPGEKVTMTCRARSSVSYMDWYQQKPRSSPKPWIYATSNLASGVPARFSGSGSGTSYSLTISRVEAEDAATYYCQQWTSNPPTFGSGTKLEIKRTVAAPSVFIFPPSDEQLKSGTASVVCLLNNFYPREAKVQWKVDNALQSGNSQESVTEQDSKDSTYSLSSTLTLSKADYEKHKVYACEVTHQGLSSPVTKSFNRGEC
notes: Chimeric human IgG1/kappa; leucine to valine at Kabat position 11 of the VH framework; also called IgG1-CD20-1 L11V
binding result [1]: binds

B2: IgA2 variant of m2 (IgA-CD20-2 as IgA2(m1)) (antibody)
heavy: QAYLQQSGAELVRPGASVKMSCKASGYTFTSYNMHWVKQTPRQGLEWIGGIYPGNGDTSYNQKFKGKATLTVDKSSSTAYMQLSSLTSEDSAVYFCARYYYGSSYGAMDYWGQGTSVTVSSASPTSPKVFPLSLDSTPQDGNVVVACLVQGFFPQEPLSVTWSESGQNVTARNFPPSQDASGDLYTTSSQLTLPATQCPDGKSVTCHVKHYTNPSQDVTVPCPVPPPPPCCHPRLSLHRPALEDLLLGSEANLTCTLTGLRDASGATFTWTPSSGKSAVQGPPERDLCGCYSVSSVLPGCAQPWNHGETFTCTAAHPELKTPLTANITKSGNTFRPEVHLLPPPSEELALNELVTLTCLARGFSPKDVLVRWLQGSQELPREKYLTWASRQEPSQGTTTFAVTSILRVAAEDWKKGDTFSCMVGHEALPLAFTQKTIDRLAGKPTHVNVSVVMAEVDGTCY
light: B1 light with V10I, F12S, R26S, D33H, R40G, E80A, Q88H, S92F, S99G
notes: Monomeric human IgA2(m1) constant region (pEE14.4-IgA2(m1)) and human kappa light chain; also called IgA2-CD20 mAb; IgA2-CD20 UMAB002
binding result [2]: binds

B3: IgA1 variant of m2 (IgA-CD20-2 as IgA1) (antibody)
heavy: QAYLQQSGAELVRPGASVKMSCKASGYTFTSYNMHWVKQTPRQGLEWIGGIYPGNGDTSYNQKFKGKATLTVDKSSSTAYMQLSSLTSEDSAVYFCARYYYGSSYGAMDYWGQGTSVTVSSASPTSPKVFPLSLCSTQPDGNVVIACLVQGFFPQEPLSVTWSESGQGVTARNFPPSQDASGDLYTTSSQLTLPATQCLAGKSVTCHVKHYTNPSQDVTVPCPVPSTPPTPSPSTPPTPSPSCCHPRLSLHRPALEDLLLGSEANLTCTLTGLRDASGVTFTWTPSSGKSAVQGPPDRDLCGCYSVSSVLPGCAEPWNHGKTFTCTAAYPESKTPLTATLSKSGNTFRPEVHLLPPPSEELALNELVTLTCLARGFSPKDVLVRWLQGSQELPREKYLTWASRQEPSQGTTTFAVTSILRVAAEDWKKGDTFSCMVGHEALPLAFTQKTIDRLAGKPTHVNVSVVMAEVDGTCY
light: B1 light with V10I, F12S, R26S, D33H, R40G, E80A, Q88H, S92F, S99G
notes: Monomeric human IgA1 constant region (pEE14.4-IgA1) and human kappa light chain; also called IgA1-CD20 mAb; IgA1-CD20 UMAB002
binding result [2]: binds

B4: IgA1 variant of m1 (IgA-CD20-1 as IgA1) (antibody)
heavy: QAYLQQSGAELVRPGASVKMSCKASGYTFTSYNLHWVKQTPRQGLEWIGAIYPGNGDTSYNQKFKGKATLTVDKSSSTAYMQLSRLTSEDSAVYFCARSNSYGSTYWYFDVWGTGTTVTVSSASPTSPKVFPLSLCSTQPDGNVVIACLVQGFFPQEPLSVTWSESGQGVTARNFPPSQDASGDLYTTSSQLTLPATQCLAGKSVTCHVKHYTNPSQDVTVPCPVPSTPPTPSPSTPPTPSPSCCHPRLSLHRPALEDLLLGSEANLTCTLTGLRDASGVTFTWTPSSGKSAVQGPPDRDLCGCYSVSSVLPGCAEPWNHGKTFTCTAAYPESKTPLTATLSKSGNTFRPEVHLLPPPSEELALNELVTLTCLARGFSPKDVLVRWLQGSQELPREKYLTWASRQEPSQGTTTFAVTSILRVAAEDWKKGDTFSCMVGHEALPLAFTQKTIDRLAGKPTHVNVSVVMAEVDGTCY
light: B1 light
notes: Monomeric human IgA1 constant region (pEE14.4-IgA1) and human kappa light chain; also called IgA1-CD20 mAb; IgA1-CD20 UMAB001
binding result [2]: binds

B5: IgA2 variant of m1 (IgA-CD20-1 as IgA2(m1)) (antibody)
heavy: QAYLQQSGAELVRPGASVKMSCKASGYTFTSYNLHWVKQTPRQGLEWIGAIYPGNGDTSYNQKFKGKATLTVDKSSSTAYMQLSRLTSEDSAVYFCARSNSYGSTYWYFDVWGTGTTVTVSSASPTSPKVFPLSLDSTPQDGNVVVACLVQGFFPQEPLSVTWSESGQNVTARNFPPSQDASGDLYTTSSQLTLPATQCPDGKSVTCHVKHYTNPSQDVTVPCPVPPPPPCCHPRLSLHRPALEDLLLGSEANLTCTLTGLRDASGATFTWTPSSGKSAVQGPPERDLCGCYSVSSVLPGCAQPWNHGETFTCTAAHPELKTPLTANITKSGNTFRPEVHLLPPPSEELALNELVTLTCLARGFSPKDVLVRWLQGSQELPREKYLTWASRQEPSQGTTTFAVTSILRVAAEDWKKGDTFSCMVGHEALPLAFTQKTIDRLAGKPTHVNVSVVMAEVDGTCY
light: B1 light
notes: Monomeric human IgA2(m1) constant region (pEE14.4-IgA2(m1)) and human kappa light chain; also called IgA2-CD20 mAb; IgA2-CD20 UMAB001
binding result [2]: binds

B6: IgG1-CD20-2 with the L11V mutation (antibody)
heavy: not shown
light: B1 light with V10I, F12S, R26S, D33H, R40G, E80A, Q88H, S92F, S99G
notes: Chimeric human IgG1/kappa; leucine to valine at Kabat position 11 of the VH framework; also called IgG1-CD20-2 L11V
binding result [1]: binds

B10: IgG1-CD20-9 (antibody, V domains shown)
VH: QAYLQQSGAELVRPGASVKMSCKASGYTFPSYNMHWVKQTPRQGLEWIGAIYPGNGDTSYNQKFKGKASQTVDKSSSTVYMQLSSLTSADSAVYFCARSRLFDSSYGWYFDVWGTGTTVTVSS
VL: QIVLSQSPAILSAYPGEKVTMTCRARSSVSYIDWYQQKAGSSPKPWIYATSNLASGVPARFSGSGSGTSYSLTISRVEAEDAATYYCQQWTSNPPTFGGGTKLEIKR
notes: Chimeric: human IgG1 constant region and human kappa light chain; also called chimerized version of m9
binding result [5]: binds

B11: IgG1-CD20-10 (antibody, V domains shown)
VH: QAYLQQSGADLVRPGASVKMSCKASGFTFPSYNLHWVKQTPRQGLEWIGAIYPGNGDTSYNQKFKGKATLTVDKSSSTAYMQLSSLTSEDSAVYFCARSAYYGSNVWFFDVWGTGTTVTVSS
VL: B10 VL with Y14S, R26S, I32M, A39P, A59T, T91I, G99A, E104D, I105L
notes: Chimeric: human IgG1 constant region and human kappa light chain; also called chimerized version of m10
binding result [5]: binds

B12: IgG1-CD20-7 (antibody, V domains shown)
VH: QAYLQQSGAELVRPGASVKMSCKASGYTFASYNMHWIKQTPRQGLEWIAAIYPGNGDTSYNQKFKGKATLTVDKSSSTAYMQLSSLTSEDSAVYFCARTYYYGSSPYWSFDVWGTGTTVTVSS
VL: DIQMTQSPASLSASVGETVTVTCGASYNIYGALNWYQRKQGKSPQLLIYGATNLADGMSSRFSGSGSGRQYSLKISSLHPDDVATYYCQNVLSNPPTFGGGTKLEIKR
notes: Chimeric: human IgG1 constant region and human kappa light chain; also called chimerized version of m7
binding result [5]: binds

Results, then the binder that gave them:

Kd [3]: 210 pM
koff [3]: 1.77e-05 s⁻¹
kon [3]: 85400 M⁻¹ s⁻¹
Kd [4]: 960 pM
koff [4]: 7.8e-05 s⁻¹
kon [4]: 81700 M⁻¹ s⁻¹
B7: m2 (mIgG2c-CD20 mAb) (antibody, V domains shown)
VH: QAYLQQSGAELVRPGASVKMSCKASGYTFTSYNMHWVKQTPRQGLEWIGGIYPGNGDTSYNQKFKGKATLTVDKSSSTAYMQLSSLTSEDSAVYFCARYYYGSSYGAMDYWGQGTSVTVSS
VL: QIVLSQSPAILSASPGEKVTMTCRASSSVSYMHWYQQKPGSSPKPWIYATSNLASGVPARFSGSGSGTSYSLTISRVEAADAATYYCHQWTFNPPTFGGGTKLEIK
modifications: FITC- or Alexa647-labelled in the kinetic assays; label sites not given
notes: Mouse IgG2c hybridoma mAb; FITC- or Alexa647-labeled in the kinetic assays

Kd [3]: 250 pM
koff [3]: 1.13e-05 s⁻¹
kon [3]: 45700 M⁻¹ s⁻¹
Kd [4]: 120 pM
koff [4]: 6.53e-06 s⁻¹
kon [4]: 53900 M⁻¹ s⁻¹
B8: m9 (mIgG2c-CD20 mAb) (antibody, V domains shown)
VH: B10 VH
VL: B7 VL with S14Y, S26R, M32I, H33D, P39A, A80E, H88Q, F92S
modifications: FITC-labelled antibody in the LigandTracer assay; the label positions are not defined.
notes: Mouse IgG2c hybridoma mAb; FITC-labeled in LigandTracer

Kd [3]: 190 pM
koff [3]: 8.17e-06 s⁻¹
kon [3]: 44200 M⁻¹ s⁻¹
Kd [4]: 510 pM
koff [4]: 2.82e-05 s⁻¹
kon [4]: 55700 M⁻¹ s⁻¹
B9: m10 (mIgG2c-CD20 mAb) (antibody, V domains shown)
VH: B11 VH
VL: B7 VL with H33D, A59T, A80E, H88Q, T91I, F92S, G99A, E104D, I105L
modifications: FITC-labelled in the LigandTracer assay; label sites not given
notes: as for B8

binding result [6]: binds
binding result [7]: binds
binding result [8]: binds
B13: m7 (mIgG2b-CD20 mAb) (antibody, V domains shown)
VH: B12 VH
VL: DIQMTQSPASLSASVGETVTVTCGASYNIYGALNWYQRKQGKSPQLLIYGATNLADGMSSRFSGSGSGRQYSLKISSLHPDDVATYYCQNVLSNPPTFGGGTKLEIK
notes: Mouse IgG2b hybridoma mAb
